In patent US20190367615A1 (BEIJING HANMI PHARM, published 2019) one finds binding result and EC50 data, which are given here for one molecule.

Test [1] has as its target T1, Recombinant mouse PD-1 (Sino Biological Inc.) (mouse, UniProt Q02242 25-167).
T1 sequence (looked up): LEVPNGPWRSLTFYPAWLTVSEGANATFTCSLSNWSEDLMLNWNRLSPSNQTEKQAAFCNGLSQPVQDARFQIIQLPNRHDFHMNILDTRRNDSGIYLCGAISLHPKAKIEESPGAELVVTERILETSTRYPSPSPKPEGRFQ
Description: species specificity ELISA, coated recombinant mouse PD-1, anti-human IgG-HRP. How it is done: (§1) Recombinant human PD-1, monkey PD-1, rat PD-1 and mouse PD-1 (all purchased from Sino Biological Inc.), were coated on a 96-well high-absorbing ELISA plate with a carbonate buffer solution with pH 9.6, the coating concentration was 1 μg/mL, the coating amount was 100 μL per well, and the coating was carried out at 4° C. overnight. The plate was washed five times with PBST and blocked with 300 μL/well of PBST containing 1% BSA, and then incubated at 25° C. for 1 hour. The plate was washed five times with PBST. […] The plate was washed five times with PBST. Then, horseradish peroxidase-labeled anti-human IgG antibody (Chemicon, Catalog Number AP309P) 1:2000 diluted in PBST containing 1% BSA was added, 100 μL per well, incubated at 25° C. for 1 hour. The plate was washed five times with PBST. 100 μL/well of colorimetric substrate TMB was added and incubated at room temperature for 10 minutes. Color development was terminated by adding 100 μL/well of 1 M H₂SO₄: The absorbance at 450 nm was read on a microplate reader.

Test [2] addresses T2, Recombinant human B7-H2 (Sino Biological Inc.) (human, UniProt O75144 19-256, limits assumed).
T2 sequence (looked up): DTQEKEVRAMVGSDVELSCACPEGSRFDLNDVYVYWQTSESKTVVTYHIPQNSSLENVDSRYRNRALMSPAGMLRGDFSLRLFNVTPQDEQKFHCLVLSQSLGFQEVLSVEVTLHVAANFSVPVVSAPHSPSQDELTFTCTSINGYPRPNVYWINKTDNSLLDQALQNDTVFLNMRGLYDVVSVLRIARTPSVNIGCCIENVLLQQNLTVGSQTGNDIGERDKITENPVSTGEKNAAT
As to the kind of experiment: binding specificity ELISA, coated recombinant human B7-H2, anti-human IgG-HRP. How it is done: (§2) The plate was washed five times with PBST and blocked with 300 μL/well of PBST containing 1% BSA and incubated at 25° C. for 1 hour. The plate was washed five times with PBST. […] The plate was washed five times with PBST. Then, horseradish peroxidase-labeled anti-human IgG antibody (Chemicon, Catalog Number AP309P) 1:2000 diluted in PBST containing 1% BSA was added, 100 μL was added to each well, incubated at 25° C. for 1 hour. The plate was washed five times with PBST. 100 μL/well of colorimetric substrate TMB was added and incubated at room temperature for 10 minutes. Color development was terminated by adding 100 μL/well of 1 M H₂SO₄. The absorbance at 450 nm was read on a microplate reader.
A general note: ELISA stands for enzyme-linked immunosorbent assay.

The target of test [3] is T3, Recombinant human PD-1 (Sino Biological Inc., Catalog Number 10377-H08H) (human, UniProt Q15116 25-167).
T3 construct: Bought protein; also called antigen PD-1
As to the kind of experiment: species specificity ELISA, coated recombinant human PD-1 (1 ug/mL), anti-human IgG-HRP, OD450nm. The method, then: as §1

Test [4] concerns the target T4, Recombinant human CTLA4 (Sino Biological Inc.) (human, UniProt P16410 36-162).
T4 sequence (looked up): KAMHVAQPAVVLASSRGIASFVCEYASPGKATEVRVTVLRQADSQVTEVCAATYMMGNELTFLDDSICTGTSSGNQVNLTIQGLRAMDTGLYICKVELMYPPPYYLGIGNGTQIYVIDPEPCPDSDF
As to the kind of experiment: binding specificity ELISA, coated recombinant human CTLA4, anti-human IgG-HRP. How it is done:
as §2

Test [5] concerns the target T5, Recombinant human CD80 (Sino Biological Inc.) (human, UniProt P33681 35-242).
T5 sequence (looked up): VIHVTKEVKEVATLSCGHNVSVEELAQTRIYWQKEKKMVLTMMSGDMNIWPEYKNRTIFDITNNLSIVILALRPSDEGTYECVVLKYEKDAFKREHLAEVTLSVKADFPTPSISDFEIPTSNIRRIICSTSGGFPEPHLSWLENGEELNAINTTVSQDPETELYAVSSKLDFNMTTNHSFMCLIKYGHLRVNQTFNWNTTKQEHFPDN
Description: binding specificity ELISA, coated recombinant human CD80, anti-human IgG-HRP. How it is done:
as §2

Test [6] concerns the target T6, Recombinant human ICOS (Sino Biological Inc.) (human, UniProt Q9Y6W8 21-141).
T6 sequence (looked up): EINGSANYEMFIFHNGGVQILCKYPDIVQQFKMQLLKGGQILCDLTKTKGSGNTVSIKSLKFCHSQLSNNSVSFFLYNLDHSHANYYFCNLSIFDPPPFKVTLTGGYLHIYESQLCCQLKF
As to the kind of experiment: binding specificity ELISA, coated recombinant human ICOS, anti-human IgG-HRP. The method, then: as §2

The target of test [7] is T7, Recombinant human BTLA (Sino Biological Inc.) (human, UniProt Q7Z6A9 31-157, limits assumed).
T7 sequence (looked up): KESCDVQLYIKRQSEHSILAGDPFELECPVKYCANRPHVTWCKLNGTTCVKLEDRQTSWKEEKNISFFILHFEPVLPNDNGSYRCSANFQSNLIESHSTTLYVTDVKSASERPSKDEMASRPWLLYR
As to the kind of experiment: binding specificity ELISA, coated recombinant human BTLA, anti-human IgG-HRP. How it is done: as §2

For test [8], the target named is Recombinant monkey PD-1 (Sino Biological Inc.) (monkey). As to the kind of experiment: species specificity ELISA, coated recombinant monkey PD-1 (1 ug/mL), anti-human IgG-HRP, OD450nm. How it is done:
as §1

Test [9] has as its target Recombinant human CD28 (Sino Biological Inc.) (human, UniProt P10747 19-152). As to the kind of experiment: binding specificity ELISA, coated recombinant human CD28, anti-human IgG-HRP. How it is done: as §2
Test [10] concerns the target T8, Recombinant human PD-L2 (Sino Biological Inc.) (human, UniProt Q9BQ51 20-220).
T8 sequence (looked up): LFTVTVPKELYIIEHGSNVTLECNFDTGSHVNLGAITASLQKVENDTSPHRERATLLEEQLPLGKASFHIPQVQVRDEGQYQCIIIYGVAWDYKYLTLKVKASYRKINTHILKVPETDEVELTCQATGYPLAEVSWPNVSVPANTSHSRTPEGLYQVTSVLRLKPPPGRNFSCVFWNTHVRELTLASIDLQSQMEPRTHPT
As to the kind of experiment: binding specificity ELISA, coated recombinant human PD-L2, anti-human IgG-HRP. How it is done: as §2

Recombinant human CD28 (Sino Biological Inc.), sequence (P10747 19-152 limits assumed): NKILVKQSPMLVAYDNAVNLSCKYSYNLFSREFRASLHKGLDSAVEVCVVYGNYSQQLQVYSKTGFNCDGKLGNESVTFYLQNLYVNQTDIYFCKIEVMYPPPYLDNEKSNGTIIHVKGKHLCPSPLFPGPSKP
T3 sequence (Q15116 25-167 limits assumed): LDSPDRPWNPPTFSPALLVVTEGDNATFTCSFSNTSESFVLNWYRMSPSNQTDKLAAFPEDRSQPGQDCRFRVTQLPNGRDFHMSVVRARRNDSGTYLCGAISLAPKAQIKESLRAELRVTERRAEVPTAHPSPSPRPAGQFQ

B1: anti-human PD-1 chimeric monoclonal antibody (antibody, human IgG4 S228P, kappa, V domains shown)
VH: EVQLQESGGGLVKPGGSLKLSCAASGFTFSSYGMSWVRQTPEKRLEWVASISGGGRYTYYPDSMKGRFTISRDNAKNNLHLQMSSLRSEDTALYYCVYEYFYTMDYWGQGTSVTVSS
VL: DIVLTQSPATLSVTPGDSVSLSCRANQSISNNLHWYQQRSHESPRLLIRFASQSISGIPSRFSGSGSGTDFTLSINSVETEDFGMYFCQQSDNWPLTFGAGTKLEIKR
notes: expressed in 293F cells; also called Anti-human PD-1 Chimeric Antibody; chimeric anti-human PD-1 monoclonal antibody
Take B1: the binding result in test [1] is given as “no binding (tested: about 20 nM)”; in test [2], “no binding”; in test [4], “no binding”; in test [5], “no binding”; in test [6], “no binding”; in test [7], “no binding”. The binding result in [9] and in test [10] was “no binding” each time. The half-maximal effective concentration (EC50) in test [3] was 0.092 nM; in test [8], 0.1 nM.

As usually defined, the EC50 is the concentration at which the effect is half-maximal.
